Data on twelve substances can be found in patent publication US20260062447A1, “COMPOUNDS” (UNIVERSITY OF SOUTHAMPTON, priority 2022, published 2026).

The target of experiment [1] is HIF-1α PAS-B domain (UniProt Q16665). In words: MST (microscale thermophoresis), labelled HIF-1α PAS-B [part 3 of 14) B]. (In general: MST reads how a fluorescent partner responds to local heating, with and without ligand.)
The target is the same in experiment [2]. In words: MST (microscale thermophoresis), labelled HIF-1α PAS-B [part 4 of 4].
Experiment [3] has the same target. The experiment can be described thus: MST (microscale thermophoresis), labelled HIF-1α PAS-B [part 3 of 4].
Experiment [4] has the same target. In words: MST (microscale thermophoresis), labelled HIF-1α PAS-B [part 2 of 4].
For experiment [5] the target is unchanged. The experiment can be described thus: MST.
The next experiment has as its target His-HIF-1α PAS-B domain (UniProt Q16665). The experiment can be described thus: competition ELISA: inhibition of FLAG-HIF-1β PAS-B binding to plate-bound His-HIF-1α PAS-B. (ELISA stands for enzyme-linked immunosorbent assay.)
Experiment [6] concerns the target HIF-1α PAS-B domain (UniProt Q16665). The experiment can be described thus: MST (microscale thermophoresis), labelled HIF-1α PAS-B [part 1 of 4) B].

Chain of HIF-1α PAS-B domain (Q16665 238-349 limits assumed): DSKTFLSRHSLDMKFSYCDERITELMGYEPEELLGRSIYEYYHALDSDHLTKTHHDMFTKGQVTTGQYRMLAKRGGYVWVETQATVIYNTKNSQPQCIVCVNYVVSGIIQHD
Chain of His-HIF-1α PAS-B domain (Q16665 238-349 limits assumed): as above

As for Cyclo-CLLY(Me)VY (peptide), the Kd in the experiment with HIF-1α PAS-B domain [1] is over 200 µM.

For the substance “Cyclo-CL-NL-F(CF3)IF(Br) (Cys leu n-leu phe(CF3) ile phe(4-Br)) (peptide)”, the EC50 (read off the curve) with HIF-1α PAS-B domain [2] worked out at 0.5 µM.

With Cyclo-CLLF(CF3)-Aib-F(Br) (peptide), the equilibrium dissociation constant (Kd) with HIF-1α PAS-B domain [3] is 1.92 µM.

For the substance Cyclo-CLLF(CF3)-NV-F(Br) (peptide), in the experiment with HIF-1α PAS-B domain [4], the Kd stood at 22.4 µM.

The substance “cyclo-CK-NL-F(CF3)IF(Br) (Cys lys n-leu phe(CF3) ile phe(4-Br)) (peptide)” yielded a dissociation constant (Kd) in the experiment with HIF-1α PAS-B domain [5] of 1.66 µM. In addition, the IC50 in the experiment with His-HIF-1α PAS-B domain turned out to be 27.7 µM.

In the case of Cyclo-CLLF(CF3)-NL-F(Br) (peptide), in the experiment with HIF-1α PAS-B domain [2], the equilibrium dissociation constant (Kd) is 1.03 µM. This counts as single-digit micromolar.

As for Cyclo-CL-NV-F(CF3)IF(Br) (peptide), the 50% effective concentration (EC50 (read off the curve)) in the experiment with HIF-1α PAS-B domain [4] came to 0.6 µM.

In the experiment with HIF-1α PAS-B domain [3], Cyclo-CL-Prop-F(CF3)IF(Br) (peptide) displayed an EC50 (read off the curve) of 1 µM.

In the experiment with HIF-1α PAS-B domain [2], “Cyclo-CLLF(CF3)-hL-F(Br) (Cys leu leu phe(CF3) h-leu phe(4-Br)) (peptide)” returned a dissociation constant Kd of 0.735 µM. This lies in the sub-micromolar range.

Substance Cyclo-CL-Aib-F(CF3)IF(Br) (peptide) registered an EC50 (read off the curve) with HIF-1α PAS-B domain [6] of 2 µM.

In the case of Cyclo-CL-hL-F(CF3)IF(Br) (peptide), the 50% effective concentration (EC50 (read off the curve)) with HIF-1α PAS-B domain [3] stood at 0.7 µM.

For Cyclo-CLLF(CF3)-Prop-F(Br) (peptide), in the experiment with HIF-1α PAS-B domain [4], the Kd stood at 1.16 µM.

By Kd is commonly meant the equilibrium constant for the complex coming apart. Higher therefore signals a looser complex. A word on the EC50 (read off the curve): it is the concentration needed to bring the measured effect to its halfway point. A higher EC50 (read off the curve) goes with weaker potency. What is called IC50 is the concentration needed to halve the response being measured. Low values mean greater potency in that assay, high ones weaker potency in that assay.
